Test results reported in patent publication US20240059759A1.
Positions count from the first letter of the chain named. Several values for one entry are separate records, joined by “and”; a condition that tells them apart may be missing. Identical values can stand only once. Like-named read-outs stand apart in the source and are kept apart here.

Assays:
[1] = biological target: SARS-CoV-2 Spike RBD-His Tag, Sino Biological (SARS-CoV-2)
[2] = biological target: SARS-CoV-2 Spike RBD-His Tag, Sino Biological (SARS-CoV-2); remark: listed apart in the source
[3] = biological target: SARS-CoV-2 Spike RBD-His Tag, Sino Biological (SARS-CoV-2); remark: listed apart in the source
CoV-2 (SARS-CoV-2) [4] = biological target: CoV-2 (SARS-CoV-2)
CoV-2 (SARS-CoV-2) [5] = biological target: CoV-2 (SARS-CoV-2); remark: listed apart in the source
CoV-2 (SARS-CoV-2) [6] = biological target: CoV-2 (SARS-CoV-2); remark: listed apart in the source
CoV-2 (SARS-CoV-2) [7] = biological target: CoV-2 (SARS-CoV-2); remark: listed apart in the source
CoV-2 (SARS-CoV-2) [8] = biological target: CoV-2 (SARS-CoV-2); remark: listed apart in the source
[9] = biological target: SARS-CoV-2 Spike RBD-His Tag, Sino Biological (SARS-CoV-2); remark: listed apart in the source
[10] = biological target: SARS-CoV-2 Spike RBD-His Tag, Sino Biological (SARS-CoV-2); remark: listed apart in the source
[11] = biological target: SARS-CoV-2 Spike RBD-His Tag, Sino Biological (SARS-CoV-2); remark: listed apart in the source
[12] = biological target: SARS-CoV-2 Spike RBD-His Tag, Sino Biological (SARS-CoV-2); remark: listed apart in the source
[13] = biological target: SARS-CoV-2 Spike RBD-His Tag, Sino Biological (SARS-CoV-2); remark: listed apart in the source
[14] = biological target: SARS-CoV-2 Spike RBD-His Tag, Sino Biological (SARS-CoV-2); remark: listed apart in the source
[15] = biological target: SARS-CoV-2 Spike RBD-His Tag, Sino Biological (SARS-CoV-2); remark: listed apart in the source
[16] = biological target: SARS-CoV-2 Spike RBD-His Tag, Sino Biological (SARS-CoV-2); remark: listed apart in the source
[17] = biological target: SARS-CoV-2 Spike RBD-His Tag, Sino Biological (SARS-CoV-2); remark: listed apart in the source
[18] = biological target: SARS-CoV-2 Spike RBD-His Tag, Sino Biological (SARS-CoV-2); remark: listed apart in the source
[19] = biological target: SARS-CoV-2 Spike RBD-His Tag, Sino Biological (SARS-CoV-2); remark: listed apart in the source
[20] = biological target: SARS-CoV-2 Spike RBD-His Tag, Sino Biological (SARS-CoV-2); remark: listed apart in the source
[21] = biological target: SARS-CoV-2 Spike RBD-His Tag, Sino Biological (SARS-CoV-2); remark: listed apart in the source
[22] = biological target: SARS-CoV-2 Spike RBD-His Tag, Sino Biological (SARS-CoV-2); remark: listed apart in the source
[23] = biological target: SARS-CoV-2 Spike RBD-His Tag, Sino Biological (SARS-CoV-2); remark: listed apart in the source
CoV-2 (SARS-CoV-2) [24] = biological target: CoV-2 (SARS-CoV-2); remark: listed apart in the source
[25] = biological target: SARS-CoV-2 Spike RBD-His Tag, Sino Biological (SARS-CoV-2); remark: listed apart in the source
CoV-2 (SARS-CoV-2) [26] = biological target: CoV-2 (SARS-CoV-2); remark: listed apart in the source
[27] = biological target: SARS-CoV-2 Spike RBD-His Tag, Sino Biological (SARS-CoV-2); remark: listed apart in the source
CoV-2 (SARS-CoV-2) [28] = biological target: CoV-2 (SARS-CoV-2); remark: listed apart in the source

B1: vhh_tstrep_sars2_pjl1_L_74 (VHH)
VHH: QVQLQESGGGLVQAGGSLRLSCAASGRTFSEYAMGWFRQAPGKEREFVATISWSGGATYQTDSVKGRFTISRDNAKNTVYLQMNSLKPDDTAVYYCAAAGLGTVVSEWDYDYDYWGQGTQVTVSS
For B1, the xmid (log10) [1] was -0.787 and the xmid (log10) [2] was -0.413.

B2: vhh_tstrep_sars2_pjl1_L_139 (VHH)
VHH: B1 VHH with Q60H, Y112F
Work on B2 yielded a xmid (log10) [3] of 0.366.

B3: vhh_tstrep_sars2_pjl1_L_47 (VHH)
VHH: B1 VHH with A57S, Q60Y, Y112A
B3 gave a xmid (log10) (CoV-2 (SARS-CoV-2) [4]) of -0.708, a xmid (log10) (CoV-2 (SARS-CoV-2) [5]) of 1.45 and a xmid (log10) (CoV-2 (SARS-CoV-2) [6]) of 0.716.

B4: vhh_tstrep_sars2_pjl1_L_35 (VHH)
VHH: B1 VHH with A57S, Q60Y, A98G
B4 gave a xmid (log10) (CoV-2 (SARS-CoV-2) [7]) of -0.501, a xmid (log10) (CoV-2 (SARS-CoV-2) [8]) of 0.231 and a xmid (log10) (CoV-2 (SARS-CoV-2) [6]) of 0.355.

B5: vhh_tstrep_sars2_pjl1_L_113 (VHH)
VHH: B1 VHH with Q60H, Y110F
Binder B5 has a xmid (log10) [9] of -0.0032 and a xmid (log10) [10] of 0.334.

B6: vhh_tstrep_sars2_pjl1_L_114 (VHH)
VHH: B1 VHH with Q60H, A98P
With B6 the xmid (log10) [9] was 0.263 and the xmid (log10) [11] was 0.526.

B7: vhh_tstrep_sars2_pjl1_L_77 (VHH)
VHH: B1 VHH with Q60H
B7 gave a xmid (log10) [12] of -1.6, a xmid (log10) [13] of -1.92 and a xmid (log10) [14] of -1.42. The xmid (log10) [3] was -1.66 and -1.72, the xmid (log10) [15] was -1.49 and the xmid (log10) [16] was -1.54. It also gave a xmid (log10) [17] of -1.54, a xmid (log10) [18] of -1.22 and a xmid (log10) [19] of -1.54.

B8: vhh_tstrep_sars2_pjl1_L_99 (VHH)
VHH: B1 VHH with Q60Y, D109A, Y114A
Work on B8 yielded a xmid (log10) [20] of -0.202 and a xmid (log10) [21] of -0.384.

B9: vhh_tstrep_sars2_pjl1_L_144 (VHH)
VHH: B1 VHH with I51S, Q60H
For B9, the xmid (log10) [12] was 0.491 and the xmid (log10) [22] was -0.0515.

B10: vhh_tstrep_sars2_pjl1_L_79 (VHH)
VHH: B1 VHH with Q60T
B10 gave a xmid (log10) [1] of -1.02 and a xmid (log10) [2] of -1.01.

B11: vhh_tstrep_sars2_pjl1_L_115 (VHH)
VHH: B1 VHH with Q60H, G100D
Work on B11 yielded a xmid (log10) [13] of 0.0337 and a xmid (log10) [17] of -0.277.

B12: vhh_tstrep_sars2_pjl1_L_112 (VHH)
VHH: B1 VHH with Q60H, S63T
B12 was tested, and the xmid (log10) [9] was -1.14 and the xmid (log10) [11] was -1.27.

B13: vhh_tstrep_sars2_pjl1_L_75 (VHH)
VHH: B1 VHH with Q60S
Binder B13 has a xmid (log10) [14] of 0.0467 and a xmid (log10) [18] of -0.0338.

B14: vhh_tstrep_sars2_pjl1_L_80 (VHH)
VHH: B1 VHH with Q60Y, D62R
B14 gave a xmid (log10) [14] of -0.61 and a xmid (log10) [23] of -0.743.

B15: vhh_tstrep_sars2_pjl1_L_1 (VHH)
VHH: B1 VHH with A57S, Q60Y, A97G
With B15 the xmid (log10) (CoV-2 (SARS-CoV-2) [24]) was 0.321, the xmid (log10) (CoV-2 (SARS-CoV-2) [5]) was 0.839 and the xmid (log10) (CoV-2 (SARS-CoV-2) [8]) was 0.903.

B16: vhh_tstrep_sars2_pjl1_L_150 (VHH)
VHH: B1 VHH with T58G, Q60H
Work on B16 yielded a xmid (log10) [22] of 0.879 and a xmid (log10) [11] of 0.171.

B17: vhh_tstrep_sars2_pjl1_L_145 (VHH)
VHH: B1 VHH with W53L, Q60H
Work on B17 yielded a xmid (log10) [25] of 0.562 and a xmid (log10) [11] of 0.668.

B18: vhh_tstrep_sars2_pjl1_L_4 (VHH)
VHH: B1 VHH with A57S, Q60Y, A99G
B18 gave a xmid (log10) (CoV-2 (SARS-CoV-2) [26]) of 0.673, a xmid (log10) (CoV-2 (SARS-CoV-2) [24]) of -0.0058 and a xmid (log10) (CoV-2 (SARS-CoV-2) [5]) of 0.752.

B19: vhh_tstrep_sars2_pjl1_L_76 (VHH)
VHH: B1 VHH with Q60E
For B19, the xmid (log10) [18] was -0.184 and the xmid (log10) [27] was -0.368.

B20: vhh_tstrep_sars2_pjl1_L_27 (VHH)
VHH: B1 VHH with A57S, Q60Y, G102A
Work on B20 yielded a xmid (log10) (CoV-2 (SARS-CoV-2) [26]) of 0.407, a xmid (log10) (CoV-2 (SARS-CoV-2) [4]) of 0.178 and a xmid (log10) (CoV-2 (SARS-CoV-2) [28]) of 0.577.
